# Test results taken from patent US20210238298A1 (ALLIGATOR BIOSCIENCE, published 2021).
# Residue numbers refer to the chain shown, from its start. In names and notes the source's numbering stands.
# T1: murine OX40 (murine, UniProt P47741 20-211, limits assumed)
# T1 sequence (looked up): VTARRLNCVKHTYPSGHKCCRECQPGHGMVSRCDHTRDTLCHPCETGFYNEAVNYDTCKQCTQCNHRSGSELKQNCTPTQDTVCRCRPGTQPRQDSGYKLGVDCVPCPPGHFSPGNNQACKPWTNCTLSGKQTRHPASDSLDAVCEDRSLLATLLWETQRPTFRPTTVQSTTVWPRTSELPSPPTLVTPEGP
# T2: OX40 chimera 1548: human OX40 with mouse module 3 and domains 4A and 4B (aa 108-167), on FreeStyle 293-F cells (human; mouse, UniProt P47741 104-165)
# T2 construct: domain: module 3, 4A and 4B; Limits derived as for 1544
# T2 sequence: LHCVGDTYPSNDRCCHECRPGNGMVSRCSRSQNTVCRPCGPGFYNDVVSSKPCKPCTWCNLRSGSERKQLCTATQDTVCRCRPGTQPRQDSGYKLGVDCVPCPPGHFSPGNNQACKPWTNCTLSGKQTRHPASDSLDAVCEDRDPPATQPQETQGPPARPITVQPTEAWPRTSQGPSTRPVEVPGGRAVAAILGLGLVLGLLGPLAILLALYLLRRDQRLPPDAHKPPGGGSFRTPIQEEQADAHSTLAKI
# B1: anti-OX40 antibody 1490/1135 (antibody, V domains shown)
# VH: EVQLLESGGGLVQPGGSLRLSCAASGFTFSSYAMSWVRQAPGKGLEWVSGISYYGGYTYYADSVKGRFTISRDNSKNTLYLQMNSLRAEDTAVYYCARYYPHHYIDYWGQGTLVTVSS
# VL: not shown
# notes: Tested as IgG
# B2: human wild-type CD86 (monomeric soluble extracellular domain) (ligand)
# chain: APLKIQAYFNETADLPCQFANSQNQSLSELVVFWQDQENLVLNEVYLGKEKFDSVHSKYMGRTSFDSDSWTLRLHNLQIKDKGLYQCIIHHKKPTGMIRIHQMNSELSVLA
# notes: also called wild type protein
# B3: CD86 mutant 910 (ligand)
# chain: LKIQAYFNETADLPCQFANSQNQSLSELVVFWQDQENLVLNEVYLGKEKFDSVDSKYMGRTSFDSDSWTLRLHNLQIKDKGIYQCIIHHKKPTGMVKIHEMNSELSVLA
# notes: Variant of the CD86 extracellular domain
# B4: CD86 mutant 900 (ligand)
# chain: B3 chain with I86V, T93S, M95L
# notes: as for B3
# B5: CD86 mutant 904 (ligand)
# chain: B3 chain with V29I, K49R, S52A, T93S, E100Q, N102D
# notes: as for B3
# B6: CD86 mutant 906 (ligand)
# chain: B3 chain with F7I, Q23L, K49R, I82F, M95L
# notes: as for B3
# B7: CD86 mutant 915 (ligand)
# chain: B3 chain with V39I, I82F, T93S, M95L, V96I, E100Q, N102D
# notes: as for B3
# B8: CD86 mutant 901 (ligand)
# chain: B3 chain with Q23L, S24T, D54H, I86V, V96I, A109T
# notes: as for B3
# B9: CD86 mutant 908 (ligand)
# chain: B3 chain with D54H
# notes: as for B3
# B10: CD86 mutant 938 (ligand)
# chain: B3 chain with V39I, D54H, E100Q
# notes: as for B3
# B11: CD86 mutant 907 (ligand)
# chain: B3 chain with D54H, I82L, V96I
# notes: as for B3
# B12: CD86 mutant 1038 (ligand)
# chain: B2 chain with Q25L, H56D, L84I, I98V, R99K, Q102E
# notes: as for B3
# B13: CD86 mutant 1046 (ligand)
# chain: B2 chain with H56D, K80E, L84I, T95S, I98V, R99K, N104D
# notes: as for B3
# B14: CD86 mutant 1043 (ligand)
# chain: B2 chain with Q25L, H56D, L84I, R99K, Q102E
# notes: as for B3
# B15: CD86 mutant 1039 (ligand)
# chain: B2 chain with Q25L, H56S, L84I, T95S, I98V, R99K, N104D
# notes: as for B3
# B16: CD86 mutant 1044 (ligand)
# chain: B2 chain with Q25L, S26T, H56S, L84I, R99K, Q102E, N104S
# notes: as for B3
# B17: CD86 mutant 1047 (ligand)
# chain: B2 chain with Q25L, H56D, L84I, M97L, I98V, R99K, Q102E
# notes: as for B3
# B18: CD86 mutant 1045 (ligand)
# chain: B2 chain with Q25L, S26T, H56D, M97L, I98V, R99K, Q102E
# notes: as for B3
# B19: CD86 mutant 1041 (ligand)
# chain: B2 chain with F9L, Q25L, H56D, L84I, M97L, I98V, R99K, Q102E
# notes: as for B3
# B20: CD86 mutant 1042 (ligand)
# chain: B2 chain with Q25L, K51I, H56S, L84I, T95S, I98V, R99K, N104D
# notes: as for B3
# B21: CD86 mutant H79A (Peach et al.) (ligand)
# chain: B2 chain with H56A
# notes: also called Prior Art
# Molecular target: T3, recombinant human CD137-Fc (R&D #838-4B) (human, UniProt Q07011 24-186)
# T3 construct: Bought; also called Human CD137 (R&D systems); CD137 (R&D Systems); not shown: Fc part, not described
# Assay: ELISA
# T3 sequence (Q07011 24-186 limits assumed): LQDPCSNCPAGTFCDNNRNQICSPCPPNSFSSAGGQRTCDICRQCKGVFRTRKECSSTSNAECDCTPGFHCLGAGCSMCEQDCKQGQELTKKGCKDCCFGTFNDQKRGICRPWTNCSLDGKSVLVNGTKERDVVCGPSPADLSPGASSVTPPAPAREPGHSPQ
row,binding result,Binder
1,no binding,B1

# Molecular target: T4, CD40 (Ancell) (UniProt P25942 21-193)
# T4 construct: also called CD40-Fc (Ancell #504-820); not shown: Fc part, not described
# Assay: ELISA
# T4 sequence (P25942 21-193 limits assumed): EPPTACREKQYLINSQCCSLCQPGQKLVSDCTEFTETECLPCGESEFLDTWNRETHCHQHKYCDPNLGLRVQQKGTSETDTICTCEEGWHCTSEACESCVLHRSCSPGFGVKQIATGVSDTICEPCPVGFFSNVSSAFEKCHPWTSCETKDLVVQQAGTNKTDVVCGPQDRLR
row,binding result,Binder
1,no binding,B1

# Molecular target: T1, murine OX40
# Assay: ELISA
row,binding result,Binder
1,no binding,B1

# Molecular target: T5, CTLA4-Fc (Fitzgerald, #30R-CD152) (human, UniProt P16410 38-152)
# T5 construct: Bought; also called human CTLA-4 (Fitzgerald); biotinylated-CTLA4; not shown: Fc part of the bought fusion, not described
# Assay: ELISA on coated CTLA4-Fc and CD28-Fc
# Protocol: 96-well flat bottom high binding plates (Greiner, #655074) were coated with either CTLA4-Fc (Fitzgerald, #30R-CD152) or CD28-Fc (R&D systems, 342-CD) by incubating overnight at 4° C. […] The plates were washed again and sample or controls (serially diluted ⅕ from 200-0.001 μg/ml) were added to the wells. The samples were incubated for 1 h at room temperature and then washed. Detection antibody, goat-anti-human IgG Fcγ-HRP (Jackson, #109-035-098) was added and the plates were subsequently developed using SuperSignal Pico Chemiluminescent substrate (Thermo Scientific, #37069) and detected with an Envision reader (Perkin Elmer). EC50 values were calculated for both CTLA4 and CD28. The binding ratio (EC50 binding ratio=[EC50 for CD28]÷[EC50 for CTLA-4]) was calculated for each polypeptide and is shown in Table 1.1.
# T5 sequence (P16410 38-152 limits assumed): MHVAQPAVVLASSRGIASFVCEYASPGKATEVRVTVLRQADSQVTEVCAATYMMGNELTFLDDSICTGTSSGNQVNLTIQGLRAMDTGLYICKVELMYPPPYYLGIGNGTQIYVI
row,EC50 binding ratio ([EC50 for CD28]/[EC50 for CTLA-4]),Binder
1,3.4,B2
2,7.7,B3
3,3.5,B4
4,12.2,B5
5,16.2,B6
6,9.9,B7
7,17.2,B8
8,6.2,B9
9,2,B10
10,30.5,B11

# Molecular target: T2, OX40 chimera 1548: human OX40 with …
# Assay: flow cytometry, 293-F transfectants
# Protocol: The mouse/human chimeras were transiently transfected into FreeStyle 293-F cells (Invitrogen), incubated 48 hours in FreeStyle 293 expression medium (Invitrogen) 37 C, 8% CO₂, 135 rpm. The transfected cells were incubated with human OX40 antibodies, human OX40L (hOX40L, RnD Systems), mouse OX40L (mOX40L, RnD Systems) and controls for 30 min 4° C. and then detected with a-huIgG-PE (Jackson Immunoresearch) 30 min 4° C. Cells were analyzed with FACS Verse (BD Biosciences). Binding to the different chimeric constructs were calculated as relative (mean fluorescence intensity) MFI compared to the binding of the isotype control.
row,relative MFI vs isotype control,Binder
1,1.1,B1

# Molecular target: T6, soluble murine CTLA-4 (R&D systems) (murine, UniProt P09793 36-162)
# T6 construct: Bought
# Assay: not described
# Protocol: In brief, 96-well flat bottom plate high binding plates (Greiner #655074) were coated with human CTLA-4 (Fitzgerald) incubating overnight at 4° C.
# The sample (exemplary CD86 mutant) was pre-incubated at room temperature for 1 hour with soluble biotinylated human CTLA4 (Fitzgerald #30R-CD152) or soluble murine CTLA-4 (R&D systems) at different concentrations (serial dilutions ¼ from 30000 to 0.3 ng/ml).
# The mixture was then added to the blocked wells in the ELISA plate. Detection was performed with Streptavidin-HRP (Pierce, #21126) and the plates were subsequently developed using SuperSignal Pico Chemiluminescent substrate (Thermo Scientific, #37069) and detected with Envision reader (Perkin Elmer).
row,binding result,Binder
1,binds,B12
2,binds,B13
3,binds,B14
4,binds,B15
5,binds,B16
6,binds,B17
7,binds,B18
8,binds,B19
9,binds,B20
10,binds,B3
11,binds,B4
12,binds,B5
13,binds,B6
14,binds,B7
15,binds,B8
16,binds,B9
17,binds,B10
18,binds,B11

# Molecular target: T5, CTLA4-Fc (Fitzgerald, #30R-CD152)
# Assay: SPR on immobilised CTLA4-Fc and CD28-Fc
# Protocol: (§1) Either CTLA4-Fc (Fitzgerald, #30R-CD152) or CD28-Fc (R&D Systems, 342-CD) was immobilized to the Biacore™ sensor chip, CM5, using conventional amine coupling. The CD86 mutant molecules and controls (serially diluted ½ 100-1.5 nM) were analyzed for binding in HBS-P (GE, BR-1003-68) at a flow rate of […]. The association was followed for 3 minutes and the dissociation for 10 minutes. Regeneration was performed twice using 5 mM NaOH for 30 seconds. The kinetic parameters and the affinity constants were calculated using BIAevaluation 4.1 software (Table 1.3).
row,Kd binding ratio ([Kd for CD28]/[Kd for CTLA-4]),Binder
1,1.6,B2
2,5.1,B3
3,6.8,B5
4,0.8,B6
5,1.9,B7
6,2.7,B8
7,4.7,B9
8,5.5,B10
9,5.6,B11

# Molecular target: T5, CTLA4-Fc (Fitzgerald, #30R-CD152)
# Assay: SPR (Biacore), immobilised CTLA4-Fc
# Protocol: as §1
Kd,koff,kon,Binder
50 nM,0.023 s⁻¹,460000 M⁻¹ s⁻¹,B2
12 nM,0.012 s⁻¹,1e+06 M⁻¹ s⁻¹,B12
6 nM,0.008 s⁻¹,1.4e+06 M⁻¹ s⁻¹,B13
10 nM,0.011 s⁻¹,1.1e+06 M⁻¹ s⁻¹,B14
8 nM,0.0085 s⁻¹,1e+06 M⁻¹ s⁻¹,B15
8 nM,0.0094 s⁻¹,1.1e+06 M⁻¹ s⁻¹,B16
10 nM,0.0084 s⁻¹,850000 M⁻¹ s⁻¹,B17
9 nM,0.0083 s⁻¹,940000 M⁻¹ s⁻¹,B18
63 nM,0.022 s⁻¹,340000 M⁻¹ s⁻¹,B21
12 nM,0.0084 s⁻¹,700000 M⁻¹ s⁻¹,B19
25 nM,0.011 s⁻¹,440000 M⁻¹ s⁻¹,B20
